The target of experiment [1] is human complement Factor H (human) (UniProt P08603). In words: SPR; Biacore X100; FH coupled to a CM4 chip, recombinant PspCs injected at five increasing concentrations (kinetic titration); PBS-P+ buffer; fitted with a 1:1 binding model. (In general: Surface plasmon resonance follows binding to a sensor surface in real time, without labels.)
For experiment [2] the target is unchanged. The description is as above. This is another data set of the same source.

pKd: −log10 of the molar value. Where two headings read alike, the source gives them in different places.

Sequence of human complement Factor H (human) (P08603 19-1231): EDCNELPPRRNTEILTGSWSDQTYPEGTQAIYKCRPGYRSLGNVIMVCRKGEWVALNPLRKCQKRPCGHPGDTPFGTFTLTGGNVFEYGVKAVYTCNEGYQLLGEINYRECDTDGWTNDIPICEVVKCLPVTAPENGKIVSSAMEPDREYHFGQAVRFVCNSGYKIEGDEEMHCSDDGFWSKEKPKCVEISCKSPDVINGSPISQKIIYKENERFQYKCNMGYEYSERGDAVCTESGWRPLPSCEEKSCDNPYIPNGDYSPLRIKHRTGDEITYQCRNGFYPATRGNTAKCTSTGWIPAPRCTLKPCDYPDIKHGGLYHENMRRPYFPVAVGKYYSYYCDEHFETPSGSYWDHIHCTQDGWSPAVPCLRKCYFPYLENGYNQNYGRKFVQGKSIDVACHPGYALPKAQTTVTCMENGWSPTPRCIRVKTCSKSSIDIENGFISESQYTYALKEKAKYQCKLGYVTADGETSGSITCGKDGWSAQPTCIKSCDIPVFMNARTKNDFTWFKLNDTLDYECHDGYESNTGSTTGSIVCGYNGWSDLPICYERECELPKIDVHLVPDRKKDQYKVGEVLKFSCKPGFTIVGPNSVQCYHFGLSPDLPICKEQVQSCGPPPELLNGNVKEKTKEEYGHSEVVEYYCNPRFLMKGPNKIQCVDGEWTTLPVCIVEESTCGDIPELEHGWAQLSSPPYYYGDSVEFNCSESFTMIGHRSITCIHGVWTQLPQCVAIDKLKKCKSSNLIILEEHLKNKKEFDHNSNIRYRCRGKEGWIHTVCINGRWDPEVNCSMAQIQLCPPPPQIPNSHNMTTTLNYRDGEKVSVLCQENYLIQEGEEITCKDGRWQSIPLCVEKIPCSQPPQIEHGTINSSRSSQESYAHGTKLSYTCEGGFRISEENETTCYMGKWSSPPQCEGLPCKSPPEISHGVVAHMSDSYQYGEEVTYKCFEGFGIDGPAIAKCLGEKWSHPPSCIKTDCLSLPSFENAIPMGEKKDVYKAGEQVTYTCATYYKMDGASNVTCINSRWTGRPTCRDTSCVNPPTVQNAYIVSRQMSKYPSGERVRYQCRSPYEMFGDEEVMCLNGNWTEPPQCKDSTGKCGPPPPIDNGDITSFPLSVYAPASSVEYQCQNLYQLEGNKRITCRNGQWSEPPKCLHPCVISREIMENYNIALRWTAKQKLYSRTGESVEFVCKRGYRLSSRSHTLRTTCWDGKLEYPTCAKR

With “recombinant PspC (D39) (domain or fragment)”, the pKd in experiment [1] was 10.05. Moreover, in experiment [2], the pKd was 10.07, the koff amounted to 4.3e-05 s⁻¹ and the kon worked out at 480000 M⁻¹ s⁻¹.

The term pKd denotes −log10 of the Kd, conventionally taken in molar units. In general, koff refers to the rate constant with which the complex falls apart. The kon is the rate constant with which the complex forms.
